Results taken from the supplement of paper PMC9732359.
± gives the uncertainty stated by the source.

Test: protein stability index of a GFP-peptide fusion (yeast GPS) (PSI 1-4); higher = more stable; sorted into four equal gates, so the index is relative within each strain
In short: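 Plasmids isolated from each sorting gate were PCR-amplified and Illumina-sequenced, and barcodes assigned the reads to strains. The gates, four of equal size, were set by GFP/Cherry fluorescence ratio on mid-log cultures in leucine-free medium. These cultures were yeast carrying a pooled library of tiled 17-residue yeast protein peptides fused downstream of GFP on a plasmid that also expresses Cherry. The protein stability index is the sum of every gate's read frequency times its gate number.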

Row | Sequence | protein stability index (doa10∆) | protein stability index (pdr5∆) | protein stability index (san1∆) | protein stability index (ubr1∆)
1 | RFNVVKVSAAAGKANKQ [RPS11A] | 1.44 ± 0.068 | 1.38 ± 0.087 | 2.92 ± 0.18 | 2.22 ± 0.067
2 | SPAALKQLASLKKSEEI [YMR153W/NUP53] | 2.2 ± 0.23 | 2.85 ± 0.13 | 2.65 ± 0.17 | 3.37 ± 0.15
3 | IFTEKIYKSIFNVVDVG [YJL039C/NUP192] | 1.99 ± 0.07 | 1.71 ± 0.072 | 1.72 ± 0.14 | 1.33 ± 0.065
4 | VYLTAVLEYLAAEILEL [HTA1] | 2.47 ± 0.12 | 2.43 ± 0.1 | 2.21 ± 0.09 | 2.61 ± 0.075
5 | YIKSMDLISKKTKTSLL [RPR2] | 2.96 ± 0.081 | 2.66 ± 0.079 | 2.78 ± 0.075 | 2.79 ± 0.051
6 | ELPKFILSDSPLELSAP [DIS3] | 2.5 ± 0.095 | 3.37 ± 0.17 | 2.85 ± 0.19 | 3.04 ± 0.092
7 | NLATKGMVKLNEYPVAD [REC8] | 2.85 ± 0.071 | 1.52 ± 0.05 | 1.46 ± 0.074 | 1.57 ± 0.058
8 | TAEAPTLSFNFSQKANK [YOR098C/NUP1] | 3.27 ± 0.081 | 3.27 ± 0.086 | 3.24 ± 0.056 | 3.26 ± 0.085
9 | GSKSASKQTPQPKAPRA [ISW2] | 3.08 ± 0.076 | 3.17 ± 0.12 | 2.76 ± 0.1 | 3.23 ± 0.08
10 | TNTFEGSGNNNEIESRQ [SNU114] |  | 3.48 ± 0.17 | 3.25 ± 0.11 | 
11 | FVAATTNAGYTIELAGG [FAS1] | 2.82 ± 0.063 | 2.97 ± 0.059 | 2.9 ± 0.11 | 2.68 ± 0.062
12 | LVHTQIRKTPLAQKKAH [RPL3] | 1.37 ± 0.057 | 1.38 ± 0.049 | 1.65 ± 0.069 | 1.63 ± 0.034
13 | EPQGAVTHMDQIFVRGS [SMD3] | 2.64 ± 0.11 | 2.77 ± 0.07 | 2.62 ± 0.099 | 2.56 ± 0.11
14 | NTSAATVHTATSSSIIL [SSN2] | 2.41 ± 0.053 | 2.761 ± 0.026 | 2.61 ± 0.045 | 2.65 ± 0.038
15 | ENPNFWRQFGNRMQISP [GRR1] | 3.14 ± 0.13 | 3.02 ± 0.13 | 2.93 ± 0.11 | 2.76 ± 0.12
16 | YLKESKRKYDEITHPPS [SWI3] | 2.59 ± 0.17 | 3.39 ± 0.15 | 3.02 ± 0.1 | 3.05 ± 0.11
17 | IWPAEDALRRGMLAMAS [MED4] | 3.12 ± 0.11 | 3.24 ± 0.099 | 3.05 ± 0.075 | 3.27 ± 0.086
18 | IKVTVQLKIQNRQAAAS [RPL12A] | 1.57 ± 0.052 | 2 ± 0.052 | 1.75 ± 0.1 | 2.16 ± 0.04
19 | RPTEKPVGRELDPISLI [RPN13] | 2.95 ± 0.11 | 3.4 ± 0.12 | 3.33 ± 0.08 | 3.19 ± 0.094
20 | TSELGNDDFSEVFEFKT [BRR2] | 3.04 ± 0.14 | 3.08 ± 0.097 | 2.41 ± 0.083 | 2.7 ± 0.099
21 | IEDLRADINSNRLSNPQ [YOR098C/NUP1] | 2.64 ± 0.09 | 2.8 ± 0.076 | 2.72 ± 0.06 | 2.93 ± 0.061
22 | AKKSTTISKESTPDQRK [ESC2] | 2.59 ± 0.1 | 2.78 ± 0.12 | 2.94 ± 0.13 | 2.92 ± 0.054
23 | LAHVDQIVDIRNKRAVQ [YJL039C/NUP192] | 2.35 ± 0.13 | 2.55 ± 0.12 | 2.76 ± 0.12 | 2.71 ± 0.13
24 | NSQVFGVARIYASFNDT [RPS14B] | 2.54 ± 0.08 | 2.45 ± 0.065 | 2.5 ± 0.048 | 2.67 ± 0.079
25 | IVALSSEEINQYVTQIE [PRE6] | 3.1 ± 0.053 | 2.97 ± 0.053 | 3.11 ± 0.037 | 3.05 ± 0.042
26 | GRTGNGNMGITTEMLDK [MED6] | 3.23 ± 0.069 | 3.23 ± 0.062 | 3.28 ± 0.047 | 3.27 ± 0.04
27 | FDKNTKTTPNTASSEAS [YMR153W/NUP53] | 2.99 ± 0.051 | 2.98 ± 0.053 | 2.9 ± 0.036 | 2.8 ± 0.043
28 | IPRNSPLSDLKKRSQAK [RPC82] | 2.65 ± 0.26 | 3.17 ± 0.22 |  | 

Row | Sequence | protein stability index (doa10∆) | protein stability index (pdr5∆) | protein stability index (san1∆) | protein stability index (ubr1∆)
29 | FEFNIRHSGKVYPITLS [UBP6] | 1.74 ± 0.11 | 2.51 ± 0.12 | 2.89 ± 0.089 | 1.22 ± 0.056
30 | PESIDTILSSKLSNIWM [SRB2] | 2.72 ± 0.08 | 2.78 ± 0.095 | 2.92 ± 0.054 | 2.91 ± 0.042
31 | IDTSKNLENMSIQDTST [YCG1] | 2.79 ± 0.046 | 2.94 ± 0.041 | 2.71 ± 0.044 | 2.68 ± 0.041
32 | EEQLDALECRLASAIAS [CSN12] |  | 2.02 ± 0.15 | 2.38 ± 0.12 | 1.81 ± 0.088
33 | ITDKTIKAFMDSTIGNS [IRR1] | 2.54 ± 0.15 | 2.62 ± 0.14 | 3.4 ± 0.15 | 2.41 ± 0.14
34 | SSYEEFLERFDFYTRHH [ITC1] | 3.19 ± 0.13 | 3.1 ± 0.083 | 3.03 ± 0.073 | 3.1 ± 0.081
35 | SYKDSGLWGFSTATRNV [COR1] | 2.98 ± 0.086 | 3.11 ± 0.094 | 3.19 ± 0.064 | 3.16 ± 0.084
36 | TLSTHSTTTSVNGSTTA [SIN4] | 2.79 ± 0.043 | 3.04 ± 0.038 | 3.114 ± 0.03 | 2.93 ± 0.031
37 | GIWNDLGSGSNVDVCVM [PUP1] | 2.69 ± 0.27 |  |  | 
38 | YSLQPSVDITGGPWFTD [RPC34] | 1.89 ± 0.079 | 2.54 ± 0.12 | 2.86 ± 0.089 | 2.49 ± 0.064
39 | QGLKLAKKHKLNAITLD [SMC3] | 2.4 ± 0.21 | 2.64 ± 0.29 |  | 
40 | GKIEKIAQSKKKNNKIK [SRP21] | 3.11 ± 0.094 | 3.02 ± 0.078 | 3.01 ± 0.066 | 3.14 ± 0.057
41 | VFLSNLVETCLNDLVES [BRR2] | 1.41 ± 0.05 | 1.98 ± 0.04 | 1.57 ± 0.11 | 1.89 ± 0.039
42 | IFNGETLEDALRRIITD [GRR1] | 1.96 ± 0.084 | 1.96 ± 0.059 | 2.07 ± 0.07 | 2.07 ± 0.064
43 | ELGEQKCQELVTNIRRI [RRP46] | 2.09 ± 0.072 | 1.81 ± 0.056 | 1.55 ± 0.15 | 1.98 ± 0.071
44 | QANQVKRHSYAQSSHIR [RPS1A] | 2.528 ± 0.023 | 2.622 ± 0.021 | 2.564 ± 0.025 | 2.471 ± 0.019
45 | AHRGIRHFWGLRVRGQH [RPS18A] | 2.82 ± 0.1 | 2.73 ± 0.083 | 2.44 ± 0.081 | 2.66 ± 0.053
46 | QANTEPENITKREASRG [MCD1] | 3.01 ± 0.079 | 2.84 ± 0.073 | 3.03 ± 0.06 | 3.13 ± 0.047
47 | ALERNWPIVNSKVYFNN [RPN12] | 1.93 ± 0.08 | 1.7 ± 0.072 | 1.38 ± 0.12 | 1.9 ± 0.087
48 | IGHLITKEEIMHGLQAK [RPN5] | 2.91 ± 0.087 | 2.96 ± 0.091 | 2.94 ± 0.065 | 3.01 ± 0.067
49 | DTRFGGRMDMTRLYDYE [SSN2] | 3.14 ± 0.1 | 3.23 ± 0.081 | 3.47 ± 0.045 | 3.21 ± 0.061
50 | HHWLLDKLSGCYAPRPS [RPS4A] | 2.21 ± 0.063 | 1.94 ± 0.062 | 1.89 ± 0.083 | 1.42 ± 0.045
51 | AHCILGIGGDHAKFSPV [RPC40] | 2.59 ± 0.085 | 2.82 ± 0.15 | 2.41 ± 0.12 | 2.85 ± 0.068
52 | QQNPKFLQSQRQQQQRS [SWI1] | 2.47 ± 0.06 | 1.94 ± 0.063 | 2.67 ± 0.057 | 2.05 ± 0.067
53 | TSAVELGAIEQILIFAA [YJL039C/NUP192] | 2.13 ± 0.16 | 2.77 ± 0.071 | 1.77 ± 0.11 | 3.32 ± 0.13
54 | SDIIILKGEIEDYPMSS [SIR4] |  |  | 3.12 ± 0.24 | 3.48 ± 0.16
55 | EDIIKRTSPIDNVSNTH [NUT2] | 2.87 ± 0.062 | 2.88 ± 0.06 | 3.01 ± 0.083 | 3.04 ± 0.049
